Data as given in patent US20260242735A1 (UNIVERSIT T BASEL, published 2026).

B1: Refmab #2 (antibody, human IgG1, V domains shown)
VH: QVQLVQSGAEVKKPGSSVKVSCKASGGTFSDYAISWVRQAPGQGLEWMGRIIPILGVADYAQKFQGRVTITADKSTRTAYMELSSLRSEDTAVYYCARNWADAFDIWGQGTMVTVSS
VL: DIQLTQSPSSLSASVGDRVTITCRASQGISSVLAWYQQKPGKAPKLLIYDASSLESGVPSRFSGSGSGTDFTLTISSLQPEDFATYYCQQFDSSITFGQGTKLEIK
notes: Tested in IgG format; human IgG1 Fc silent (PG-LALA)
B2: Refmab #1 (antibody, human IgG1, V domains shown)
VH: EVQLVQSGAEVKKPGSSVKVSCKASGYTITDSNIHWVRQAPGQSLEWIGYIYPYNGGTDYNQKFKNRATLTVDNPTNTAYMELSSLRSEDTAFYYCVNGNPWLAYWGQGTLVTVSS
VL: DIQLTQSPSTLSASVGDRVTITCRASESLDNYGIRFLTWFQQKPGKAPKLLMYAASNQGSGVPSRFSGSGSGTEFTLTISSLQPDDFATYYCQQTKEVPWSFGQGTKVEVK
notes: Tested in IgG format; human IgG1 (Absolute Antibody hP67.6, Cat. No. Ab00283-10.0); also called hP67.6

Target: human CD33 variant P48W (human, UniProt P20138 18-364)
Assay: flow cytometry, IgG on cells expressing the mutant

| Mean % WT Binding | Binder |
| --- | --- |
| 68.8 % of WT | B1 |
| 95.6 % of WT | B2 |

Target: human CD33 variant P48F (human, UniProt P20138 18-364)
Assay: flow cytometry, IgG on cells expressing the mutant

| Mean % WT Binding | Binder |
| --- | --- |
| 68.7 % of WT | B1 |
| 94.6 % of WT | B2 |

Target: human CD33 variant P48K (human, UniProt P20138 18-364)
Assay: flow cytometry, IgG on cells expressing the mutant

Sequence of human CD33 variant P48K (P20138 18-364 P48K limits assumed): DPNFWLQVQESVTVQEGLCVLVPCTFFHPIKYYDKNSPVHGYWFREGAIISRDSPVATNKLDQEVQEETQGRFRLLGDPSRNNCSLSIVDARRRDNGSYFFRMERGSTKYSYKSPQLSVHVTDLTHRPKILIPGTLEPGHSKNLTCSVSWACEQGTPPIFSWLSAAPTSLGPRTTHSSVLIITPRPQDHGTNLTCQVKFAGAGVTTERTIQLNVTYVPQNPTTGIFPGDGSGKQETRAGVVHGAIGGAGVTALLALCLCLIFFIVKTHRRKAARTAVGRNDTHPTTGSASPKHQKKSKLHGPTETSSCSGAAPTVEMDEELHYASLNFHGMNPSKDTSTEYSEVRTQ

| Mean % WT Binding | Binder |
| --- | --- |
| 106 % of WT | B1 |
| 99.4 % of WT | B2 |

Target: human CD33 variant K52E (human, UniProt P20138 18-364)
Assay: flow cytometry, IgG on cells expressing the mutant

| Mean % WT Binding | Binder |
| --- | --- |
| 52.4 % of WT | B1 |
| 98.6 % of WT | B2 |

Target: human CD33 variant Y127R (human, UniProt P20138 18-364)
Assay: flow cytometry, IgG on cells expressing the mutant

| Mean % WT Binding | Binder |
| --- | --- |
| 110 % of WT | B1 |
| 84 % of WT | B2 |

Target: human CD33 variant Y49S (human, UniProt P20138 18-364)
Assay: flow cytometry, IgG on cells expressing the mutant

Sequence of human CD33 variant Y49S (P20138 18-364 Y49S limits assumed): as the sequence (P20138 18-364 P48K limits assumed) above, with K31P, Y32S counted along it

| Mean % WT Binding | Binder |
| --- | --- |
| 87.2 % of WT | B1 |
| 107 % of WT | B2 |

Target: human CD33 variant Y50L (human, UniProt P20138 18-364)
Assay: flow cytometry, IgG on cells expressing the mutant

Sequence of human CD33 variant Y50L (P20138 18-364 Y50L limits assumed): as the sequence (P20138 18-364 P48K limits assumed) above, with K31P, Y33L counted along it

| Mean % WT Binding | Binder |
| --- | --- |
| 119 % of WT | B1 |
| 109 % of WT | B2 |

Target: human CD33 variant I47F (human, UniProt P20138 18-364)
Assay: flow cytometry, IgG on cells expressing the mutant

| Mean % WT Binding | Binder |
| --- | --- |
| 2.2 % of WT | B1 |
| 101 % of WT | B2 |

Target: human CD33 variant Y49D (human, UniProt P20138 18-364)
Assay: flow cytometry, IgG on cells expressing the mutant

Sequence of human CD33 variant Y49D (P20138 18-364 Y49D limits assumed): as the sequence (P20138 18-364 P48K limits assumed) above, with K31P, Y32D counted along it

| Mean % WT Binding | Binder |
| --- | --- |
| 1.4 % of WT | B1 |
| 93.4 % of WT | B2 |

Target: human CD33 variant I47Q (human, UniProt P20138 18-364)
Assay: flow cytometry, IgG on cells expressing the mutant

| Mean % WT Binding | Binder |
| --- | --- |
| 104 % of WT | B2 |

Target: human CD33 variant P48Y (human, UniProt P20138 18-364)
Assay: flow cytometry, IgG on cells expressing the mutant

Sequence of human CD33 variant P48Y (P20138 18-364 P48Y limits assumed): as the sequence (P20138 18-364 P48K limits assumed) above, with K31Y counted along it

| Mean % WT Binding | Binder |
| --- | --- |
| 21.6 % of WT | B1 |
| 99.5 % of WT | B2 |

Target: human CD33 variant K52L (human, UniProt P20138 18-364)
Assay: flow cytometry, IgG on cells expressing the mutant

Sequence of human CD33 variant K52L (P20138 18-364 K52L limits assumed): as the sequence (P20138 18-364 P48K limits assumed) above, with K31P, K35L counted along it

| Mean % WT Binding | Binder |
| --- | --- |
| 74.8 % of WT | B1 |
| 97.6 % of WT | B2 |

Target: human CD33 variant R122E (human, UniProt P20138 18-364)
Assay: flow cytometry, IgG on cells expressing the mutant

Sequence of human CD33 variant R122E (P20138 18-364 R122E limits assumed): as the sequence (P20138 18-364 P48K limits assumed) above, with K31P, R105E counted along it

| Mean % WT Binding | Binder |
| --- | --- |
| 0.6 % of WT | B1 |
| 110 % of WT | B2 |

Target: human CD33 variant P48I (human, UniProt P20138 18-364)
Assay: flow cytometry, IgG on cells expressing the mutant

| Mean % WT Binding | Binder |
| --- | --- |
| 81.9 % of WT | B1 |
| 107 % of WT | B2 |

Target: human CD33 variant P48H (human, UniProt P20138 18-364)
Assay: flow cytometry, IgG on cells expressing the mutant

| Mean % WT Binding | Binder |
| --- | --- |
| 81.9 % of WT | B1 |
| 97.4 % of WT | B2 |

Target: human CD33 variant Y50H (human, UniProt P20138 18-364)
Assay: flow cytometry, IgG on cells expressing the mutant

| Mean % WT Binding | Binder |
| --- | --- |
| 119 % of WT | B1 |
| 103 % of WT | B2 |

Target: human CD33 variant Y50D (human, UniProt P20138 18-364)
Assay: flow cytometry, IgG on cells expressing the mutant

Sequence of human CD33 variant Y50D (P20138 18-364 Y50D limits assumed): as the sequence (P20138 18-364 P48K limits assumed) above, with K31P, Y33D counted along it

| Mean % WT Binding | Binder |
| --- | --- |
| 112 % of WT | B1 |
| 115 % of WT | B2 |

Target: human CD33 variant Y127H (human, UniProt P20138 18-364)
Assay: flow cytometry, IgG on cells expressing the mutant

| Mean % WT Binding | Binder |
| --- | --- |
| 114 % of WT | B1 |
| 97.1 % of WT | B2 |

Target: human CD33 variant P48D (human, UniProt P20138 18-364)
Assay: flow cytometry, IgG on cells expressing the mutant

Sequence of human CD33 variant P48D (P20138 18-364 P48D limits assumed): as the sequence (P20138 18-364 P48K limits assumed) above, with K31D counted along it

| Mean % WT Binding | Binder |
| --- | --- |
| 10.4 % of WT | B1 |
| 109 % of WT | B2 |

Target: human CD33 variant Y129S (human, UniProt P20138 18-364)
Assay: flow cytometry, IgG on cells expressing the mutant

Sequence of human CD33 variant Y129S (P20138 18-364 Y129S limits assumed): as the sequence (P20138 18-364 P48K limits assumed) above, with K31P, Y112S counted along it

| Mean % WT Binding | Binder |
| --- | --- |
| 102 % of WT | B1 |
| 68.7 % of WT | B2 |

Target: human CD33 variant Y49P (human, UniProt P20138 18-364)
Assay: flow cytometry, IgG on cells expressing the mutant

| Mean % WT Binding | Binder |
| --- | --- |
| 6.9 % of WT | B1 |
| 92.5 % of WT | B2 |

Target: human CD33 variant M120V (human, UniProt P20138 18-364)
Assay: flow cytometry, IgG on cells expressing the mutant

| Mean % WT Binding | Binder |
| --- | --- |
| 95.5 % of WT | B1 |
| 98.7 % of WT | B2 |

Target: human CD33 variant P48N (human, UniProt P20138 18-364)
Assay: flow cytometry, IgG on cells expressing the mutant

| Mean % WT Binding | Binder |
| --- | --- |
| 95.2 % of WT | B1 |
| 100 % of WT | B2 |

Target: human CD33 variant P48T (human, UniProt P20138 18-364)
Assay: flow cytometry, IgG on cells expressing the mutant

| Mean % WT Binding | Binder |
| --- | --- |
| 71.3 % of WT | B1 |
| 106 % of WT | B2 |

Target: human CD33 variant Y50N (human, UniProt P20138 18-364)
Assay: flow cytometry, IgG on cells expressing the mutant

| Mean % WT Binding | Binder |
| --- | --- |
| 108 % of WT | B1 |
| 96.3 % of WT | B2 |

Target: human CD33 variant S131G (human, UniProt P20138 18-364)
Assay: flow cytometry, IgG on cells expressing the mutant

Sequence of human CD33 variant S131G (P20138 18-364 S131G limits assumed): as the sequence (P20138 18-364 P48K limits assumed) above, with K31P, S114G counted along it

| Mean % WT Binding | Binder |
| --- | --- |
| 112 % of WT | B1 |
| 95.1 % of WT | B2 |

Target: human CD33 variant P48G (human, UniProt P20138 18-364)
Assay: flow cytometry, IgG on cells expressing the mutant

| Mean % WT Binding | Binder |
| --- | --- |
| 80.8 % of WT | B1 |
| 95 % of WT | B2 |

Target: human CD33 variant R122F (human, UniProt P20138 18-364)
Assay: flow cytometry, IgG on cells expressing the mutant

| Mean % WT Binding | Binder |
| --- | --- |
| 1.2 % of WT | B1 |
| 110 % of WT | B2 |

Target: human CD33 variant R122I (human, UniProt P20138 18-364)
Assay: flow cytometry, IgG on cells expressing the mutant

| Mean % WT Binding | Binder |
| --- | --- |
| 1.1 % of WT | B1 |
| 110 % of WT | B2 |

Target: human CD33 variant D51Y (human, UniProt P20138 18-364)
Assay: flow cytometry, IgG on cells expressing the mutant

| Mean % WT Binding | Binder |
| --- | --- |
| 69.8 % of WT | B1 |
| 94.4 % of WT | B2 |

Target: human CD33 variant Y50Q (human, UniProt P20138 18-364)
Assay: flow cytometry, IgG on cells expressing the mutant

Sequence of human CD33 variant Y50Q (P20138 18-364 Y50Q limits assumed): as the sequence (P20138 18-364 P48K limits assumed) above, with K31P, Y33Q counted along it

| Mean % WT Binding | Binder |
| --- | --- |
| 113 % of WT | B1 |
| 93.9 % of WT | B2 |

Target: human CD33 variant P48L (human, UniProt P20138 18-364)
Assay: flow cytometry, IgG on cells expressing the mutant

| Mean % WT Binding | Binder |
| --- | --- |
| 90.4 % of WT | B1 |
| 102 % of WT | B2 |

Target: human CD33 variant K52I (human, UniProt P20138 18-364)
Assay: flow cytometry, IgG on cells expressing the mutant

Sequence of human CD33 variant K52I (P20138 18-364 K52I limits assumed): as the sequence (P20138 18-364 P48K limits assumed) above, with K31P, K35I counted along it

| Mean % WT Binding | Binder |
| --- | --- |
| 86.8 % of WT | B1 |
| 89.2 % of WT | B2 |

Target: human CD33 variant I47Y (human, UniProt P20138 18-364)
Assay: flow cytometry, IgG on cells expressing the mutant

| Mean % WT Binding | Binder |
| --- | --- |
| 1.4 % of WT | B1 |
| 110 % of WT | B2 |

Target: human CD33 variant I47L (human, UniProt P20138 18-364)
Assay: flow cytometry, IgG on cells expressing the mutant

Sequence of human CD33 variant I47L (P20138 18-364 I47L limits assumed): as the sequence (P20138 18-364 P48K limits assumed) above, with I30L, K31P counted along it

| Mean % WT Binding | Binder |
| --- | --- |
| 2.8 % of WT | B1 |
| 112 % of WT | B2 |

Target: human CD33 variant Y127E (human, UniProt P20138 18-364)
Assay: flow cytometry, IgG on cells expressing the mutant

| Mean % WT Binding | Binder |
| --- | --- |
| 105 % of WT | B1 |
| 79.2 % of WT | B2 |
